According to paper PMC7658645, “Aptamer-Based Western Blot for Selective Protein Recognition”:

B1: G1 (ssDNA)
DNA: ATACGACTCACTATTAGGGACAAAGCTGACAACCCTTTCATAATCTAACTACATTTATGTGCTAGACTACTGACTAC
B2: 3.13 (ssDNA)
DNA: GAGTGTGGTTCCCGGGAGGGCGCCTACGGGTCCCGTATTCGGATTTGTGC

How the values were obtained:
[1] = biological target: Maltose-binding protein (Escherichia coli (strain K12), UniProt P0AEX9 27-396); test: Western blot, SDS-denatured protein on nitrocellulose; settings: label: 5'-Cy5.5
[2] = biological target: histone H4 (UniProt P62805 2-103); test: aptamer blot; on nitrocellulose; all four histone types labeled without selectivity; Dot blot/aptamer blot: 20 mM Tris-HCl, 100 mM NaCl, 5 mM MgCl2, 0.1% BSA (pH not given), 50 nM aptamer in dot blot (membranes equilibrated at 4 C), blots 1 h af

| Binder | binding result [1] | binding result [2] |
| --- | --- | --- |
| B1 | no binding |  |
| B2 |  | binds |
